Results published in the supplement of paper PMC11780869.

System: Bacillus subtilis
Assay: cleaved RNA product abundance (RNA/gDNA barcode ratio) relative to median wild-type variant (ratio to wild type); higher = more accumulation of the downstream cleavage product
Conditions: experiment (reporter, strain, medium): exp 8a: truncated aprE reporter, strain BJT201 with 2% xylose (RNase J1 expressed); cleavage site: glnRA (positions -5 to +31 mutated)
Outline: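 The B. subtilis chromosome carried reporter mRNAs, truncated aprE or tetM, containing barcoded RNase Y cleavage-site windows mutagenized using oligos with a 9% error rate. After growth in LB at 37°C from OD600 0.0003 to 0.3, cleaved RNA was gel-selected, reverse transcribed and barcode-sequenced next to genomic DNA barcodes, with UMI collapsing. Each construct's RNA:gDNA barcode ratio was scaled to the median construct with the unmutated site. That scaled ratio is reported as cleaved product abundance.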

| Sequence | cleaved RNA product abundance |
| --- | --- |
| CGACATGTCCCGCTTCTTTCATTAATCCGTTAGCAACTGTTCTGCTATATACATGTACCTTTTAAGAGGAGGAAT | 0.386 |
| CGACATGTCCCGCTTCTTTCATTAATCCGTTAGCAACTGTTCTGCTATATACATTTACCTTTTAAGAGGAGGAAT | 0.446 |
| CGACATGTCCCGCTTCTTTCATTAATCCGTTAGCAACTGTTCTGCTATATACATTTACTTTTTAAGAGGAGGAAT | 0.495 |
| CGACATGTCCCGCTTCTTTCATTAATCCGTTAGCAACTGTTCTGCTATATATATTTACCTTTTAAGAGGAGGAAT | 0.554 |
| CGACATGTCCCGCTTCTTTCATTAATCCGTTAGCAACTGTTGTACTATATACATTTACCTTTTAAGAGGAGGAAT | 0.713 |
| CGACATGTCCCGCTTCTTTCATTAATCCGTTAGCAACTGTTGTCCTATATACATTTACCTTTTAAGAGGAGGAAT | 0.343 |
| CGACATGTCCCGCTTCTTTCATTAATCCGTTAGCAACTGTTGTGCAATATACATTTACCTTTTAAGAGGAGGAAT | 0.249 |
| CGACATGTCCCGCTTCTTTCATTAATCCGTTAGCAACTGTTGTGCTAAATACATTTACCTTTTAAGAGGAGGAAT | 0.266 |
| CGACATGTCCCGCTTCTTTCATTAATCCGTTAGCAACTGTTGTGCTATAAACATTTACCTTTTAAGAGGAGGAAT | 0.453 |
| CGACATGTCCCGCTTCTTTCATTAATCCGTTAGCAACTGTTGTGCTATATACATTTACCTTTTAAGAGGAGGAAT | 0.516 |
| CGACATGTCCCGCTTCTTTCATTAATCCGTTAGCAACTGTTGTGCTATATATATTTACCTTTTAAGAGGAGGAAT | 0.736 |
| CGACATGTCCCGCTTCTTTCATTAATCCGTTAGCAACTGTTTAACTATATACATTTACCTTTTAAGAGGAGGAAT | 0.378 |
| CGACATGTCCCGCTTCTTTCATTAATCCGTTAGCAACTGTTTAGATATATACATTTACCTTTTAAGAGGAGGAAT | 0.297 |
| CGACATGTCCCGCTTCTTTCATTAATCCGTTAGCAACTGTTTAGCAATATACATTTACCTTTTAAGAGGAGGAAT | 0.455 |
| CGACATGTCCCGCTTCTTTCATTAATCCGTTAGCAACTGTTTAGCCATATACATTTACCTTTTAAGAGGAGGAAT | 0.259 |
| CGACATGTCCCGCTTCTTTCATTAATCCGTTAGCAACTGTTTAGCTAAATACATTTACCTTTTAAGAGGAGGAAT | 0.212 |
| CGACATGTCCCGCTTCTTTCATTAATCCGTTAGCAACTGTTTAGCTATATAAATTTACCTTTTAAGAGGAGGAAT | 0.426 |
| CGACATGTCCCGCTTCTTTCATTAATCCGTTAGCAACTGTTTAGCTATATACATATACCTTTTAAGAGGAGGAAT | 0.539 |
| CGACATGTCCCGCTTCTTTCATTAATCCGTTAGCAACTGTTTAGCTATATACATTAACCTTTTAAGAGGAGGAAT | 0.618 |
| CGACATGTCCCGCTTCTTTCATTAATCCGTTAGCAACTGTTTAGCTATATACATTTAACTTTTAAGAGGAGGAAT | 0.462 |
| CGACATGTCCCGCTTCTTTCATTAATCCGTTAGCAACTGTTTAGCTATATACATTTACATTTTAAGAGGAGGAAT | 0.588 |
| CGACATGTCCCGCTTCTTTCATTAATCCGTTAGCAACTGTTTAGCTATATACATTTACCTTTTAAGAGGAGGAAT | 0.537 |
| CGACATGTCCCGCTTCTTTCATTAATCCGTTAGCAACTGTTTAGCTATATACATTTACTTTTTAAGAGGAGGAAT | 0.591 |
| CGACATGTCCCGCTTCTTTCATTAATCCGTTAGCAACTGTTTAGCTATATACATTTAGCTTTTAAGAGGAGGAAT | 0.608 |
| CGACATGTCCCGCTTCTTTCATTAATCCGTTAGCAACTGTTTAGCTATATACATTTATCTTTTAAGAGGAGGAAT | 0.572 |

| Sequence | cleaved RNA product abundance |
| --- | --- |
| CGACATGTCCCGCTTCTTTCATTAATCCGTTAGCAACTGTTTAGCTATATACATTTGCCTTTTAAGAGGAGGAAT | 0.326 |
| CGACATGTCCCGCTTCTTTCATTAATCCGTTAGCAACTGTTTAGCTATATATATTTACCTTTTAAGAGGAGGAAT | 0.416 |
| CGACATGTCCCGCTTCTTTCATTAATCCGTTAGCAACTGTTTAGCTTTATACATTTACCTTTTAAGAGGAGGAAT | 0.192 |
| CGACATGTCCCGCTTCTTTCATTAATCCGTTAGCAACTGTTTAGGTATATACATTTACCTTTTAAGAGGAGGAAT | 0.227 |
| CGACATGTCCCGCTTCTTTCATTAATCCGTTAGCAACTGTTTAGTTATATACATTTACCTTTTAAGAGGAGGAAT | 0.327 |
| CGACATGTCCCGCTTCTTTCATTAATCCGTTAGCAACTGTTTATCTATATACATTTACCTTTTAAGAGGAGGAAT | 0.501 |
| CGACATGTCCCGCTTCTTTCATTAATCCGTTAGCAACTGTTTCACTATATACATTTACCTTTTAAGAGGAGGAAT | 0.694 |
| CGACATGTCCCGCTTCTTTCATTAATCCGTTAGCAACTGTTTCGCTATACACATTTACCTTTTAAGAGGAGGAAT | 0.222 |
| CGACATGTCCCGCTTCTTTCATTAATCCGTTAGCAACTGTTTCGCTATATACATGTACCTTTTAAGAGGAGGAAT | 0.361 |
| CGACATGTCCCGCTTCTTTCATTAATCCGTTAGCAACTGTTTCGCTATATACATTTACCTTTTAAGAGGAGGAAT | 0.358 |
| CGACATGTCCCGCTTCTTTCATTAATCCGTTAGCAACTGTTTCGCTTTATACATTTACCTTTTAAGAGGAGGAAT | 0.267 |
| CGACATGTCCCGCTTCTTTCATTAATCCGTTAGCAACTGTTTCGTTATATACATTTACCTTTTAAGAGGAGGAAT | 0.222 |
| CGACATGTCCCGCTTCTTTCATTAATCCGTTAGCAACTGTTTGACTATATACATTTACCTTTTAAGAGGAGGAAT | 0.605 |
| CGACATGTCCCGCTTCTTTCATTAATCCGTTAGCAACTGTTTGCTATATACATTTACCTTTTAAGAGGAGGAATT | 1.42 |
| CGACATGTCCCGCTTCTTTCATTAATCCGTTAGCAACTGTTTGGCAATATACATTTACCTTTTAAGAGGAGGAAT | 0.499 |
| CGACATGTCCCGCTTCTTTCATTAATCCGTTAGCAACTGTTTGGCTATAAACATTTACCTTTTAAGAGGAGGAAT | 0.327 |
| CGACATGTCCCGCTTCTTTCATTAATCCGTTAGCAACTGTTTGGCTATATAAATTTACCTTTTAAGAGGAGGAAT | 0.518 |
| CGACATGTCCCGCTTCTTTCATTAATCCGTTAGCAACTGTTTGGCTATATACAATTACCTTTTAAGAGGAGGAAT | 0.279 |
| CGACATGTCCCGCTTCTTTCATTAATCCGTTAGCAACTGTTTGGCTATATACATTTAACTTTTAAGAGGAGGAAT | 0.488 |
| CGACATGTCCCGCTTCTTTCATTAATCCGTTAGCAACTGTTTGGCTATATACATTTACATTTTAAGAGGAGGAAT | 0.339 |
| CGACATGTCCCGCTTCTTTCATTAATCCGTTAGCAACTGTTTGGCTATATACATTTACCGTTTAAGAGGAGGAAT | 0.403 |
| CGACATGTCCCGCTTCTTTCATTAATCCGTTAGCAACTGTTTGGCTATATACATTTACCTTTTAAGAGGAGGAAT | 0.493 |
| CGACATGTCCCGCTTCTTTCATTAATCCGTTAGCAACTGTTTGGCTATATACATTTACGTTTTAAGAGGAGGAAT | 0.403 |
| CGACATGTCCCGCTTCTTTCATTAATCCGTTAGCAACTGTTTGGCTATATATATTTACCTTTTAAGAGGAGGAAT | 0.546 |
| CGACATGTCCCGCTTCTTTCATTAATCCGTTAGCAACTGTTTTAAAATATACATTTACCTTTTAAGAGGAGGAAT | 0.571 |
